According to US20240425603A1 (Janssen / Centocor, published 2024):

B1: VGFB78 (antibody, human IgG1, lambda, L234A L235A, V domains shown)
VH: EVQLLESGGGLVQPGGSLRLSCAASSFTFYNYDMTWVRQAPGKGLEWVAGIGTSGTDMYYADSVKGRFTISRDNSKNTLYLQMNSLRAEDTAIYYCAKDYYYYGMDVWGLGTTVTVSS
VL: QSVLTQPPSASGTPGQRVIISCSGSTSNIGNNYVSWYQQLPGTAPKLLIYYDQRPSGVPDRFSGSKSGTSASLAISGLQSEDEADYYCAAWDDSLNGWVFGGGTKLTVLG
notes: human IgG1 (L234A/L235A/D265S)
B2: VGFB82 (antibody, human IgG1, lambda, L234A L235A, V domains shown)
VH: EVQLLESGGGLVQPGGSLRLSCEASGFDFSTYAMNWVRQAPGKGLEWVATINSEGTITSHAPAVKGRFTISRDNSKNTAYVQMNSLRAEDSAVYYCSSTTGTTHGMDVWGRGTTVTVSS
VL: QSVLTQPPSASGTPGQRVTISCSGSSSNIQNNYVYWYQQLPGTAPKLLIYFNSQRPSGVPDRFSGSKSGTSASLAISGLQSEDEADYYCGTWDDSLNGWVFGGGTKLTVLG
notes: as for B1
B3: VGFB71 (antibody, human IgG1, lambda, L234A L235A, V domains shown)
VH: EVQLLESGGGLVQPGGSLRLSCEASGFIFRDYNMNWVRQAPGKGLEWVSIITNDGSSTAYSDSVKGRFTISRDNSKNSLYLQMNSLRAEDTAIYYCVKVYYGMDDWGQGTTVTVSS
VL: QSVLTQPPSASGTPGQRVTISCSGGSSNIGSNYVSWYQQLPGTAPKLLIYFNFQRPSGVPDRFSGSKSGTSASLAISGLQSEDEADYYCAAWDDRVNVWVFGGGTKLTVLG
notes: as for B1
B4: VGFB54 (antibody, human IgG1, lambda, L234A L235A, V domains shown)
VH: EVQLLESGGGSVQPGGSLRLSCTASGFNFEDYGMNWVRQAPGKGLDWVSSINRNGDISTYHVDSVKGRFTISRDNSKNTLYLQMNSLRAEDTAIYYCTKNHDYHGMDVWGQGTTVTVSS
VL: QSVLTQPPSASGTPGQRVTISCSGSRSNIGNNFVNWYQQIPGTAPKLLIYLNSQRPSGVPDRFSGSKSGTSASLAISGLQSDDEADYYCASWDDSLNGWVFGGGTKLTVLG
notes: human IgG1 (L234A/L235A/D265S), lambda, 2H:2L; from OmniChicken

biological target: T1, VGFW1 (human, UniProt P17948 27-338, limits assumed); assay: HDX-MS
T1 construct: construct of the HDX-MS work; also called VEGFR1 (VGFW1)
T1 sequence (P17948 27-338 limits assumed): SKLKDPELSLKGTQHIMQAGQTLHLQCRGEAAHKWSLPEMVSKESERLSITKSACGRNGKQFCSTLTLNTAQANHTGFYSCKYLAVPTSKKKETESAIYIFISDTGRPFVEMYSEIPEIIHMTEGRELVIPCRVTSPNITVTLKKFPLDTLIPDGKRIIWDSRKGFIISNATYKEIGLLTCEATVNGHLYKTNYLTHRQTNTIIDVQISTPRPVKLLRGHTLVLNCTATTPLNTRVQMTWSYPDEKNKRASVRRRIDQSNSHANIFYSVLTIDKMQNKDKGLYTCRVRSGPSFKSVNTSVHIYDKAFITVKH
Procedure, shortened: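 Hydrogen-deuterium exchange mass spectrometry mapped antibody binding on a recombinant VEGFR1 antigen. The read-out is the change in free energy per segment upon antibody binding. Segments above 2 kcal/mol count as strong epitopes and segments at 1-2 kcal/mol as weak ones.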

In order of falling “Free energy change upon binding (ΔΔG), VEGFR1 segment 141-147” value:
1. B4  -0.2 kcal/mol
2. B1  -0.3 kcal/mol
3. B3  -0.3 kcal/mol
4. B2  -0.6 kcal/mol

In order of falling “Free energy change upon binding (ΔΔG), VEGFR1 segment 147-153” value:
1. B2  -0.1 kcal/mol
2. B4  -0.4 kcal/mol
3. B1  -0.6 kcal/mol
4. B3  -1.2 kcal/mol

In order of rising “Free energy change upon binding (ΔΔG), VEGFR1 segment 172-177” value:
1. B3  -4.2 kcal/mol
2. B1  -2.7 kcal/mol
3. B4  -2.6 kcal/mol
4. B2  -0.6 kcal/mol

In order of rising “Free energy change upon binding (ΔΔG), VEGFR1 segment 178-199” value:
1. B1  -1.1 kcal/mol
2. B2  -1 kcal/mol
3. B4  -0.3 kcal/mol
4. B3  0 kcal/mol

In order of rising “Free energy change upon binding (ΔΔG), VEGFR1 segment 200-200” value:
1. B1  -2.9 kcal/mol
2. B3  -2.8 kcal/mol
3. B4  -1.4 kcal/mol
4. B2  -0.5 kcal/mol

In order of falling “Free energy change upon binding (ΔΔG), VEGFR1 segment 201-204” value:
1. B3  -2.8 kcal/mol
2. B2  -3.3 kcal/mol
3. B1  -3.6 kcal/mol
4. B4  -3.6 kcal/mol

In order of rising “Free energy change upon binding (ΔΔG), VEGFR1 segment 211-215” value:
1. B2  -0.1 kcal/mol
2. B3  -0.1 kcal/mol
3. B4  -0.1 kcal/mol
4. B1  0.1 kcal/mol

In order of rising “Free energy change upon binding (ΔΔG), VEGFR1 segment 218-228” value:
1. B4  -0.7 kcal/mol
2. B2  -0.3 kcal/mol
3. B3  -0.3 kcal/mol
4. B1  -0.2 kcal/mol

biological target: T2, human VEGFR1, full length, over-expressed on cells (human, UniProt P17948 27-1338); assay: flow cytometry, CHO-K1 cells stably expressing human VEGFR1
T2 construct: on CHO-K1 or HEK cells; also called hVEGFR1; CHOK1/ human VEGFR1
T2 sequence (P17948 27-1338 limits assumed): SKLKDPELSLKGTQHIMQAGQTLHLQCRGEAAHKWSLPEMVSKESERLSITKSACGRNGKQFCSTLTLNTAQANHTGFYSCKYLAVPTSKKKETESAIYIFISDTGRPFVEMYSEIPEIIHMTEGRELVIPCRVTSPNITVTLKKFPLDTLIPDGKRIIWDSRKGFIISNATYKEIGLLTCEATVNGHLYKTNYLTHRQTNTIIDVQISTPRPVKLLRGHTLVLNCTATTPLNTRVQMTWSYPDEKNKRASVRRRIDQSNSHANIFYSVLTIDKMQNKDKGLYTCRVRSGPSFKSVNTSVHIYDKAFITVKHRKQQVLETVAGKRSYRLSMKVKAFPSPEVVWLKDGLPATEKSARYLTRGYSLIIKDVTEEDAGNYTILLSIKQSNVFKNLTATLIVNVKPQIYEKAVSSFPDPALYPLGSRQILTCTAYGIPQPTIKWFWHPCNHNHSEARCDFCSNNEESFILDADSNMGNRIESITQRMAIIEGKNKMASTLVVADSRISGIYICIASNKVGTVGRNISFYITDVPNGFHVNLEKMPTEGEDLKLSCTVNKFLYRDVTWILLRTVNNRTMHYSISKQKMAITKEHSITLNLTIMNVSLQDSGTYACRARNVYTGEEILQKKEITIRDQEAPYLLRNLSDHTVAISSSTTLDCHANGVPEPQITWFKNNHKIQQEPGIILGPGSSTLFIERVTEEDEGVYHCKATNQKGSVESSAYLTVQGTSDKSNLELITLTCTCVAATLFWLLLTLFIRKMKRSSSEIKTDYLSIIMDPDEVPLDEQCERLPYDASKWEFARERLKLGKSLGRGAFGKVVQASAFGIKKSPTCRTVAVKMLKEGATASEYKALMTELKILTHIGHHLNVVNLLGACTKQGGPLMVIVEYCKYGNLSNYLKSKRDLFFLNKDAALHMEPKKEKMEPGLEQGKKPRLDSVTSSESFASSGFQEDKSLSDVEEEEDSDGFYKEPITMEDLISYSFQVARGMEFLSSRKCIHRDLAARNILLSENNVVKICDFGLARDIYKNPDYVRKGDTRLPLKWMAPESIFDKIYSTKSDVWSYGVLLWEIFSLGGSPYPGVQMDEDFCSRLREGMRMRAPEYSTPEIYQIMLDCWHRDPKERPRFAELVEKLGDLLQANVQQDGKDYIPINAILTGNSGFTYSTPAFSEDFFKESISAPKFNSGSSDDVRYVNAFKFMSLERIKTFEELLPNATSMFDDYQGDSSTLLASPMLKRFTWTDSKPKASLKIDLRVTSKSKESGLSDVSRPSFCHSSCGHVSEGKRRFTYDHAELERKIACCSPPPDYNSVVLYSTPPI
Method: Full dose-response curves for binding of anti-VEGFR1 antibodies to VEGFR1 on cells were also generated. Parental CHO-K1 cells and CHO-K1 cells stably expressing human VEGFR1 (CHO-K1\hVEGFR1) were cultured in aMEM+10% FBS and aMEM+10% FBS containing 10 μg/mL Puromycin, respectively. CHOK1\hVEGFR1 were stained with CSFE as described above and parental CHO-K1 cells were left unstained. Cells were washed, combined (˜0.5×10⁶ cells/mL), and plated at ˜40,000 cells per well (75 μL/well). Serially diluted antibody samples were then added to the cells and incubated for 1 hour at 37° C. Cells were washed twice with stain buffer and then stained with AF647-conjugated secondary antibody for 30 min at 4° C. Plated cells were washed twice followed by the addition of read buffer containing Sytox Blue (1:1000) and read on an iQue flow cytometer. Data was fit to obtain EC₅₀ values (Table 22).

In order of rising EC50:
1. B4  0.101 nM
2. B3  0.11 nM
3. B2  0.136 nM
4. B1  0.473 nM

biological target: T3, cynomolgus monkey VEGFR1, over-expressed on HEK293 cells (cynomolgus monkey); assay: flow cytometry, 10 nM antibody, HEK cells over-expressing cyno VEGFR1
T3 construct: whole, on cells; also called HEK/ cyno VEGFR1; cynoVEGFR1
Method: Parental CHO-K1 cells, CHO-K1 cells stably expressing human VEGFR1, Ba/F3 parental, and Ba/F3 cells stably expressing murine VEGFR1 were stained for 10 minutes at 4° C. with either no stain, CSFE, CTV, or CTV+CSFE, respectively. Cells were subsequently washed with media containing heat inactivated FBS, collected by centrifugation, combined, resuspended in stain buffer, and plated (95 μL/well; 200,000 of each cell type per well). Antibody samples were added ([…]) to a final concentration of 10 nM and incubated for 60 min at 4° C. protected from light. Cells were washed twice with 150 μL/well stain buffer. AlexaFluor647-conjugated anti-human IgG1 secondary antibody was added (100 μL/well) and incubated for 30 minutes at 4° C. protected from light. Cells were washed twice with 150 μL of stain buffer, ultimately resuspended in 30 μL of running buffer and read on an iQue flow cytometer. This single concentration assay was used as a quick confirmation of binding to human and mouse VEGFR1 on cells. A similar assay was performed to confirm binding of candidate antibodies to HEK293 cells stably over-expressing cyno VEGFR1 at a single concentration of 10 nM.

In order of falling “Geomean over-expressing/Geomean parental (Fold Signal/Background)” value:
1. B1  4.46 fold
2. B4  4.4 fold
3. B3  3.8 fold
4. B2  3.3 fold

biological target: T4, human VEGFR2, over-expressed on HEK293 cells (human, UniProt P35968 20-1356); assay: flow cytometry, 10 nM antibody, HEK cells over-expressing human VEGFR2
T4 construct: whole, on cells; also called huVEGFR2; hVEGFR2

In order of falling “Geomean over-expressing/Geomean parental (Fold Signal/Background)” value:
1. B1  1.75 fold
2. B4  1.52 fold
3. B2  1.34 fold
4. B3  1.27 fold

biological target: T5, human VEGFR3, over-expressed on K562 cells (human, UniProt P35916 25-1363); assay: flow cytometry, 10 nM antibody, K562 cells over-expressing human VEGFR3
T5 construct: whole, on cells; also called huVEGFR3; hVEGFR3
T5 sequence (P35916 25-1363): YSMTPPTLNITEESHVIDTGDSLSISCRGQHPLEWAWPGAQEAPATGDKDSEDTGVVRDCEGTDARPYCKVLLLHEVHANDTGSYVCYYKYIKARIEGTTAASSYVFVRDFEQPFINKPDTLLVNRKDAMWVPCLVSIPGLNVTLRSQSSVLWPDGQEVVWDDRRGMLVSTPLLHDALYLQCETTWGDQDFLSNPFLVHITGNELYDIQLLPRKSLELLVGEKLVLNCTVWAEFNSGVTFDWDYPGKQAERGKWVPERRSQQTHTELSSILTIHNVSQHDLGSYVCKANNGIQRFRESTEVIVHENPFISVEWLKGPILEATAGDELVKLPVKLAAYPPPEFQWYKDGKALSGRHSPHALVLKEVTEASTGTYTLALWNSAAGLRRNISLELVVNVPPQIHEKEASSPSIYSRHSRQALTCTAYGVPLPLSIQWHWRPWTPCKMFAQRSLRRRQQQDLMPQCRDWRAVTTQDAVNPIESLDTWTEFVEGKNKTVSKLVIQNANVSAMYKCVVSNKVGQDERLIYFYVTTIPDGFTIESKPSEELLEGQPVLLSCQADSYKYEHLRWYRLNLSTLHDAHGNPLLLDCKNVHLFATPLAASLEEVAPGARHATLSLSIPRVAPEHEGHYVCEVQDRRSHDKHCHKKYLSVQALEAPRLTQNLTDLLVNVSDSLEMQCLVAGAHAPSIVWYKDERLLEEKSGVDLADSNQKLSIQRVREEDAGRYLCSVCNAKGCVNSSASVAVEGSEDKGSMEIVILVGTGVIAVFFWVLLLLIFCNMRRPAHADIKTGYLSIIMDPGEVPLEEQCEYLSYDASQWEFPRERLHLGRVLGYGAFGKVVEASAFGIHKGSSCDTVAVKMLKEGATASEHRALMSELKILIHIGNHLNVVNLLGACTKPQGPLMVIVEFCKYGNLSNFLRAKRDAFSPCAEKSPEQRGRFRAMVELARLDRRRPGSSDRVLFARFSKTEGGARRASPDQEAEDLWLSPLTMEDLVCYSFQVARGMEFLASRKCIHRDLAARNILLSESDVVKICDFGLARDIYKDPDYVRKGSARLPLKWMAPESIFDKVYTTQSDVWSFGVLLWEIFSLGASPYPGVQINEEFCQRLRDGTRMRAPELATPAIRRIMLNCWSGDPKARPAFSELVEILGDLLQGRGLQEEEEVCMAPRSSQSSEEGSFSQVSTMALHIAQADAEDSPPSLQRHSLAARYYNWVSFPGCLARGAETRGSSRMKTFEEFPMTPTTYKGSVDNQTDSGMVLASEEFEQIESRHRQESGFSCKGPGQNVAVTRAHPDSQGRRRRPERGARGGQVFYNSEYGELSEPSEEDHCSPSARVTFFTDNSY

In order of rising “Geomean over-expressing/Geomean parental (Fold Signal/Background)” value:
1. B4  0.97 fold
2. B3  0.98 fold
3. B1  0.99 fold
4. B2  1.01 fold

biological target: T6, Recombinant human VEGFR1-Fc (R&D Systems) (human, UniProt P17948 27-687, limits assumed); assay: MSD ECL competition on plate-bound human VEGFR1-Fc; competitor biotin PlGF (2 nM)
T6 construct: bought; not shown: Fc part of the bought fusion, not described
T6 sequence (P17948 27-687 limits assumed): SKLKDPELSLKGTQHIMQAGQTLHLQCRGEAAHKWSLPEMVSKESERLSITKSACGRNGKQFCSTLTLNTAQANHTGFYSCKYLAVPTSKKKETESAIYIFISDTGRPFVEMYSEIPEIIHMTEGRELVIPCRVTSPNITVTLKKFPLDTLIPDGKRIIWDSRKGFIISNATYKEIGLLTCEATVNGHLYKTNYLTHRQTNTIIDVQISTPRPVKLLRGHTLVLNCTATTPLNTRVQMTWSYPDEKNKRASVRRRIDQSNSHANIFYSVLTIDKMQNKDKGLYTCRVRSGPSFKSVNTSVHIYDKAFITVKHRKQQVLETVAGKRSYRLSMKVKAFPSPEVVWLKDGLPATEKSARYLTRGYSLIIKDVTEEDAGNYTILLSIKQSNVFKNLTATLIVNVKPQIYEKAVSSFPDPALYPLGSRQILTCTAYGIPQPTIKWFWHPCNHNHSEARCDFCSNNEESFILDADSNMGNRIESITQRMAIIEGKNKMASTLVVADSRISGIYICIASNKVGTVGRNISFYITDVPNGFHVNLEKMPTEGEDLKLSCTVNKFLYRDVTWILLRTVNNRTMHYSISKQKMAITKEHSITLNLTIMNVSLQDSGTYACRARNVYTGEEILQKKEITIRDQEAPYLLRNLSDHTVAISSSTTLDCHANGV
Procedure, shortened: (§1)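 IC50 and maximal percent inhibition come from electro-chemiluminescence readings of bound ligand, detected with Sulfo-tagged streptavidin on an MSD SECTOR S 600 imager. Receptor (human or mouse VEGFR1-Fc, or His-tagged cyno VEGFR1, 0.5 ug/ml) was captured for 1 hour at room temperature on Protein A/G- or anti-His mAb-coated MSD 384 plates blocked with Blocker A. Half-log antibody dilutions were pre-incubated for 30 minutes before biotinylated VEGFA (0.2 nM) or PlGF (2 nM) was added.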

In order of falling IC50:
1. B1  0.335 nM
2. B2  0.183 nM
3. B4  0.159 nM

In order of falling “Max % Inh.” value:
1. B1  100%
2. B2  100%
3. B4  100%

biological target: His tagged cyno VEGFR1 (cynomolgus monkey, UniProt A0A2K5VAF2 27-758); assay: MSD ECL competition on plate-bound His-tagged cyno VEGFR1; competitor biotin human PlGF (2 nM)
Procedure, shortened: as §1

In order of rising IC50:
1. B4  0.078 nM
2. B2  0.091 nM
3. B1  0.177 nM

In order of rising “Max % Inh.” value:
1. B1  100%
2. B2  100%
3. B4  100%

biological target: T3, cynomolgus monkey VEGFR1, …; assay: flow cytometry, HEK cells over-expressing cyno VEGFR1; competitor biotinylated VEGF A (500 pM)

In order of rising IC50:
1. B4  0.0876 nM
2. B3  0.0957 nM
3. B2  0.231 nM
4. B1  0.815 nM

biological target: T4, human VEGFR2, over-expressed on HEK293 …; assay: FACS cell binding (MFI) on HEK cells over-expressing human VEGFR2; expanded clone supernatant per paragraph 492, concentration not given
Procedure, shortened: (§2)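 Chicken-derived antibody clones, expressed as scFv-Fc (human IgG1) by transient transfection, were tested as culture supernatants. Flow cytometry measured their binding to engineered cells over-expressing each receptor: mouse VEGFR1 and human VEGFR2 on HEK cells, human VEGFR3 on K562 cells. Values are given as mean fluorescence intensity.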

B1: no binding.
B2: no binding.
B4: no binding.

biological target: T5, human VEGFR3, over-expressed on K562 …; assay: FACS cell binding (MFI) on K562 cells over-expressing human VEGFR3; expanded clone supernatant per paragraph 492, concentration not given
Procedure, shortened: as §2

B1: no binding.
B2: no binding.
B3: no binding.
B4: no binding.
